The data set deals with the molecule itself. Description: SEC; […], pH 8.0, 150 mM NaCl; flow rate 0.4 ml/min; […].

B1: ResR/McdR (ResR_(1-225)), 6x His-tagged (natural protein)
chain: MTQLVTRARSARGSTLGEQPRQDQLDFADHTGTAGDGNDGAAAASGPVQPGLFPDDSVPDELVGYRGPSACQIAGITYRQLDYWARTSLVVPSIRSAAGSGSQRLYSFKDILVLKIVKRLLDTGISLHNIRVAVDHLRQRGVQDLANITLFSDGTTVYECTSAEEVVDLLQGGQGVFGIAVSGAMRELTGVIADFHGERADGGESIAAPEDELASRRKHRDRKIG
notes: also called Rv1830; ERDMAN_2020; not shown: His6, N-terminal, kept
Consider B1, for which the binding result is given as “binds”.

The record behind these values is PMC10336103, “ResR/McdR-regulated protein translation machinery contributes to drug resilience in Mycobacterium tuberculosis” (Communications Biology, 2023).
